The results in this text go back to PMC8951179.

Test [1] addresses GST-Ku70_1–250_Q65A/Q68A (human) (UniProt P12956). In words: pull-down; GST pull-down: 100 nM GST-Ku70 variant as bait on glutathione-agarose, 100 or 200 nM His6-IN; buffer A (20 mM Hepes pH 7.5, 100 mM NaCl, 7.5 mM MgCl2, 2 mM 2-mercaptoethanol, 50 µg/mL BSA, 0.1% NP40), room temperature; Western blot.
Test [2] concerns the target GST-Ku70_1–250_S69A (human) (UniProt P12956). Described as above.

In test [1], “HIV-1 integrase carrying N-terminal His6-tag (natural protein)” showed a reduction in the protein binding efficiency (control Ku70 1–250) of 10 to 15%. The substance also displayed an IN binding activity, % of the wild-type protein in test [2] of 55 to 73%.
